Our source for the decrease in FITC fluorescence accumulation (uptake, flow cytometry) in BSA-Man-Ft-FITC@Lap-treated 4T1 cells under pH 6.5 after pre-treatment with TfR1 antibody and mean fluorescence intensity of FITC in 4T1 cells (CLSM) treated with BSA-Man@Mn2+-Ft-FITC@Lap, pH 6.5 group against pH 7.4 group values is publication PMC9515186.

The experiment deals with transferrin receptor 1 (mouse (endogenous in 4T1)) (UniProt Q62351).
Sequence of UniProt Q62351 (Q62351 whole entry): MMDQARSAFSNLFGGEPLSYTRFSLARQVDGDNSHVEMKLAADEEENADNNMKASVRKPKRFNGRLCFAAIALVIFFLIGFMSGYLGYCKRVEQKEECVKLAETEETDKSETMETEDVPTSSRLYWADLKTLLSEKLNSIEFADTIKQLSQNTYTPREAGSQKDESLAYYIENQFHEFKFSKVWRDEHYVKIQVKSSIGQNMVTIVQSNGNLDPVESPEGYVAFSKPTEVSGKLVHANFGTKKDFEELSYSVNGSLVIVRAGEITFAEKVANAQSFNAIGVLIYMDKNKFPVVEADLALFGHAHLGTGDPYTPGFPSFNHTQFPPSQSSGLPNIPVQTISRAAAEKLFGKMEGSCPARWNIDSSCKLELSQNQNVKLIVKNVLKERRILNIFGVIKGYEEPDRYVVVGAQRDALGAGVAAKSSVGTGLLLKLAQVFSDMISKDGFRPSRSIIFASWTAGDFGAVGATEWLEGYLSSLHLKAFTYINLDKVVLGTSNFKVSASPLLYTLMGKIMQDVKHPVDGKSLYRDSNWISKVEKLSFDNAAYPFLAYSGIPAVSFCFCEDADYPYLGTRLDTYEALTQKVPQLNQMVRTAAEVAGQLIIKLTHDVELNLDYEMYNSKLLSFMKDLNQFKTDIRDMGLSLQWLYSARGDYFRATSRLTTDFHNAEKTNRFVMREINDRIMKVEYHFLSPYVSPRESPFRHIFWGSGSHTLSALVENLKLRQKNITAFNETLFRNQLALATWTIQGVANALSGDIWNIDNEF

As to “ferritin (FITC-labelled, β-lapachone-loaded ferritin units, Ft-FITC@Lap) (from UniProt Q8MIP0 1-182; P02791 1-175) (natural protein)”, the decrease in FITC fluorescence accumulation (uptake, flow cytometry) in BSA-Man-Ft-FITC@Lap-treated 4T1 cells under pH 6.5 after pre-treatment with TfR1 antibody stood at 67% and the mean fluorescence intensity of FITC in 4T1 cells (CLSM) treated with BSA-Man@Mn2+-Ft-FITC@Lap, pH 6.5 group against pH 7.4 group stood at 3 fold.
